Measurements as given in US5840530, “DNA encoding receptors for the beta-2 chain of human IL-12” (Hoffmann-La Roche Inc., dated 1998).

What was measured:
[1] = target: T1, human IL-12 receptor beta1 and beta2 coexpressed on COS cells (cotransfection of the pEF-BOS beta1 plasmid … (human)); assay: equilibrium binding of 125I-labeled IL-12 to COS cells cotransfected with beta1 and beta2 plasmids, Scatchard analysis, low affinity site
Procedure: (§1) Recombinant human IL-12 was labeled with ^125I as follows. Iodogen was dissolved in chloroform. 0.05 mg aliquots of Iodogen were dried in 12×150 mm borosilicate glass tubes. For radiolabeling, 1.0 mCi Na[^125I] was added to the Iodogen-coated borosilicate glass tube, which also contained 0.05 ml of Tris-iodination buffer (25 mM Tris-HCL pH 7.5, 0.4M NaCl and 1 mM EDTA) to form a ^125I solution. The ^125I solution was activated by incubating for 6 minutes at room temperature. The activated ^125I solution was transferred to a tube containing 0.05 to 0.1 ml recombinant human IL-12 (31.5 µg) in Tris-iodination buffer. The resulting mixture of the activated ^125I solution and the recombinant human IL-12 was incubated for 6 minutes at room temperature. At the end of the incubation, 0.05 ml of Iodogen stop buffer (10 mg/ml tyrosine, 10% glycerol in Dulbecco's phosphate buffered saline (PBS), pH 7.40) was added and reacted for 3 minutes. The resulting mixture was then diluted with 1.0 ml Tris-iodination buffer containing 0.25% bovine serum albumin (BSA), and applied to a Bio-Gel P10DG desalting column for chromatography. The column was eluted with Tris-iodination buffer containing 0.25% BSA. […] The TCA precipitable radioactivity (10% TCA final concentration) was typically in excess of 95% of the total radioactivity. […]

[2] = target: T1, human IL-12 receptor beta1 and beta2 …; assay: equilibrium binding of 125I-labeled IL-12 to COS cells cotransfected with beta1 and beta2 plasmids, Scatchard analysis, high affinity site
Procedure: as §1

Kd [1]: 5 nM | Kd [2]: 0.05 nM
B1: recombinant human IL-12 (Interleukin-12) (ligand)
chain 1: IWELKKDVYVVELDWYPDAPGEMVVLTCDTPEEDGITWTLDQSSEVLGSGKTLTIQVKEFGDAGQYTCHKGGEVLSHSLLLLHKKEDGIWSTDILKDQKEPKNKTFLRCEAKNYSGRFTCWWLTTISTDLTFSVKSSRGSSDPQGVTCGAATLSAERVRGDNKEYEYSVECQEDSACPAAEESLPIEVMVDAVHKLKYENYTSSFFIRDIIKPDPPKNLQLKPLKNSRQVEVSWEYPDTWSTPHSYFSLTFCVQVQGKSKREKKDRVFTDKTSATVICRKNASISVRAQDRYYSSSWSEWASVPCS
chain 2: RNLPVATPDPGMFPCLHHSQNLLRAVSNMLQKARQTLEFYPCTSEEIDHEDITKDKTSTVEACLPLELTKNESCLNSRETSFITNGSCLASRKTSFMMALCLSSIYEDLKMYQVEFKTMNAKLLMDPKRQIFLDQNMLAVIDELMQALNFNSETVPQKSSLEEPDFYKTKIKLCILLHAFRIRAVTIDRVMSYLNAS
